By koff is commonly meant a measure of how fast the partners let go of each other. A higher koff goes with a short-lived complex. In general, Kd refers to the concentration at which binding is half-saturated. Lower therefore signals a tighter complex.

The results in this text go back to article PMC5500810 (2017).

Residue numbers refer to the chain shown, from its start.

Sequences and labels used below:
B1: Nb 34 (VHH)
VHH: QVQLQESGGGLVQAGGSLRLSCAASGFTFSSYAMSWVRQAPGKGLEWVSGINTGGGSTYYADSVKGRFTISRDNAKNTLYLQMNSLKSEDTAVYYCVPRVGVLEGLTSFGSWGQGTQVTVSS
B2: Nb 50 (VHH)
VHH: QVQLQESGGGLVQAGGSLRLSCAASGRTFNSYAEAWFRQAPGKEREMIAAVTKAGTTNYANPVKGRFTISRDDAKNMVYLQMNNLKPEDSAVYYCNAISPLWDEYDFWGPGTQVTVSS
modifications: biotin on primary amines (EZ link NHS biotin) in the Eph receptor selectivity AlphaScreen only
B3: Nb 31 (VHH)
VHH: B2 VHH with R27F, T28A, F29S, N30D, S31A, E34I, A35G, K43T, E44K, T56A
modifications: biotin on primary amines (EZ link NHS biotin) in the Eph receptor selectivity AlphaScreen only
B4: Nb 19 (VHH)
VHH: QVQLQESGGGLVQPGGSLRLSCAATGRNFNAYSIAWFRQAPGKEREFVASINWSGSNTYYAVAVKGRFTTSRDNAKNTVYLQMNSLKPEDTAVYYCNAFAAGWGPDYWGQGTQVTVSS
B5: Nb 57 (VHH)
VHH: QVQLQESGGGLVQPGGSLRLSCAASGFTFSSYYMYWVRQAPGKGLEWVSTINTGGGSTNYADSVKGRFIISRDNAKNTVYLQMNSLKPEDTAVYYCNAFAAGWGPDYWGQGTQVTVSS
modifications: biotin on primary amines (EZ link NHS biotin) in the Eph receptor selectivity AlphaScreen only
B6: Nb 60 (VHH)
VHH: QVQLQESGGGLVQPGGSLRLSCAASGFTFSRYWIYWVRQAPGKQRELVAAITRNGVTNYADSVKGRFTISTDDNKNTVYLQMNSLKSEDTAVYYCNAWGFLLGDIEDYWGQGTQVTVSS
modifications: biotin on primary amines (EZ link NHS biotin) in the Eph receptor selectivity AlphaScreen only
B7: Nb 22 (VHH)
VHH: QVQLQESGGGPVRAGESLRLSCTASGRAFSTYTMGWFRQAPGKERELVAVITPGGNTNYADSVKGRFTISRDDAKNTVYLQMNSLKPVDTAVYYCHVVLAVVGTGNEYDVWGQGTQVTVSS
modifications: biotin on primary amines (EZ link NHS biotin) in the Eph receptor selectivity AlphaScreen only
B8: Nb 39 (VHH)
VHH: QVQLQESGGGLVQPGGSLKLSCAASGFTFSTYAMSWVRQAPGKGLEWVSRINSGGGYTWHADSVKGRFTISRDNARNTVYLQMNNLKPEDTAVYYCTNLNTGWRPEYWGQGTQVTVSS
modifications: biotin on primary amines (EZ link NHS biotin) in the Eph receptor selectivity AlphaScreen only
B9: Nb 53 (VHH)
VHH: B2 VHH with L11V, T28A, N30S, E34M, A35G, K43T, E44K, K53R
modifications: biotin on primary amines (EZ link NHS biotin) in the Eph receptor selectivity AlphaScreen only

The target of one experiment is T1, human EphA4-Fc (R&D Systems) (human, UniProt P54764 20-547). Description: SPR; kd2. On the technique in general: In SPR one partner is held on a chip, and binding of the other changes the refractive index at the surface.
T1 sequence (P54764 20-547): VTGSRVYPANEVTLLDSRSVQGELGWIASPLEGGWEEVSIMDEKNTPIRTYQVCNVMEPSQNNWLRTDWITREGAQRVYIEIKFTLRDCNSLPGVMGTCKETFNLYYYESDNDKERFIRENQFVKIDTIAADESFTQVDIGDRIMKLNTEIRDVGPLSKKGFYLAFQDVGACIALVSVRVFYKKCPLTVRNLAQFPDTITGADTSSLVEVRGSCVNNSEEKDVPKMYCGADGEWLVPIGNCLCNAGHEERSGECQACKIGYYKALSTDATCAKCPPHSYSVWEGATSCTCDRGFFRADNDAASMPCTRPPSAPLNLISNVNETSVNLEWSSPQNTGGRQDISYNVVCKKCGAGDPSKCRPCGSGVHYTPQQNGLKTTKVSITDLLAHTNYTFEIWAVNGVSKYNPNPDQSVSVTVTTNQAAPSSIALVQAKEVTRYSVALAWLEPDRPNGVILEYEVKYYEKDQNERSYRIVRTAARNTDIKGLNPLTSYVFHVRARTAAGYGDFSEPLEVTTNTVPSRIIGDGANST
B1 had an off-rate constant (koff) of 0.0121 s⁻¹.

In the case of B2, the koff came to 0.0022 s⁻¹.

For the molecule B3, the koff worked out at 0.0105 s⁻¹.

In the next experiment the target is T2, mouse EphA4-Fc (R&D Systems) (mouse, UniProt Q03137 20-547). Description: SPR; kd2.
T2 sequence (Q03137 20-547): as the sequence (P54764 20-547) above, with P59A, N121S, V124G, R250Q, S251N, T270S, K378R, N406S counted along it
The molecule B1 came in with an off-rate (koff) of 0.0226 s⁻¹.

In turn, B3 registered a koff of 0.0115 s⁻¹.

The target in the next experiment is T3, EphA4 ligand-binding domain (human, amino acids 22-203) (human, UniProt P54764 22-203, biotin on primary amines (EZ link NHS biotin) in the AlphaScreen assays only). The experiment in a line: SPR; kd2.
T3 sequence (P54764 22-203): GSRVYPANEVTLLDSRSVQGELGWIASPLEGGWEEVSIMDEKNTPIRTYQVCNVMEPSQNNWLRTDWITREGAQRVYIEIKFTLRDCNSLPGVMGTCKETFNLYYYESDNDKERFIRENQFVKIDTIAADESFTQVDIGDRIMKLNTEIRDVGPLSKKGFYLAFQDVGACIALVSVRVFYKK
B4 yielded a koff of 0.0289 s⁻¹.

In the case of B5, the koff came to 0.00133 s⁻¹.

As to B6, the koff is 0.00018 s⁻¹.

Take B7: the koff came to 0.00255 s⁻¹.

B8 showed a koff of 0.00186 s⁻¹.

The molecule B2 gave a koff of 0.00062 s⁻¹.

For B9, the koff stood at 0.00213 s⁻¹.

Turning to B3, the koff is 0.00676 s⁻¹.

The target of a further experiment is T1, human EphA4-Fc (R&D Systems). The experiment in a line: SPR.
As to B1, the Kd amounted to 18000 nM.

B4 had a Kd of 852 nM.

B5 displayed a Kd of 38.3 nM.

With B6, the dissociation constant (Kd) is 39.6 nM.

In turn, B7 yielded a Kd of 47.1 nM.

In turn, B8 had a Kd of 30.1 nM.

On to B2, for which the affinity, expressed as Kd, was 64.2 nM.

B9: the affinity, expressed as Kd, was 22.6 nM.

B3 showed a Kd of 175 nM.

A further experiment deals with T2, mouse EphA4-Fc (R&D Systems). Description: SPR.
For B1, binding was put at a Kd of 26900 nM.

Consider B4, for which the affinity, expressed as Kd, was 1140 nM.

Turning to B5, the Kd came to 37.8 nM.

As to B6, the Kd is 27.4 nM.

In the case of B7, the Kd was 104 nM.

In turn, B8 yielded a Kd of 23.6 nM.

The molecule B2 gave a Kd of 104 nM.

Molecule B9 showed a Kd of 22.8 nM.

With B3, the Kd turned out to be 258 nM.

The target in another experiment is T3, EphA4 ligand-binding domain (human, …). Description: SPR.
In the case of B4, the Kd was 507 nM.

B5 showed a Kd of 57.5 nM.

For B6, the affinity, expressed as Kd, was 37 nM.

Turning to B7, the Kd worked out at 54.1 nM.

B8 registered a Kd of 56.6 nM.

Take B2: the Kd is 87.3 nM.

In turn, B9 returned a dissociation constant (Kd) of 45.7 nM.

The molecule B3 returned a Kd of 293 nM.

Another experiment addresses T1, human EphA4-Fc (R&D Systems). Description: SPR. This is another data set of the same source.
Take B4: the koff came out at 0.091 s⁻¹.

As to B5, the koff was 0.229 s⁻¹.

Consider B6, for which the off-rate (koff) was determined as 0.0488 s⁻¹.

On to B7, for which the koff turned out to be 0.0148 s⁻¹.

B8 registered a koff of 0.0291 s⁻¹.

On to B9, for which the koff amounted to 0.0156 s⁻¹.

Another experiment has as its target T2, mouse EphA4-Fc (R&D Systems). The experiment in a line: SPR. The source holds these as a separate data set.
In the case of B4, the koff came to 0.135 s⁻¹.

For the molecule B5, the off-rate constant (koff) was determined as 0.288 s⁻¹.

As for B7, the koff stood at 0.023 s⁻¹.

B8 yielded a koff of 0.0158 s⁻¹.

In the case of B2, the koff stood at 0.114 s⁻¹.

The molecule B9 yielded an off-rate (koff) of 0.0244 s⁻¹.

The target of another experiment is T1, human EphA4-Fc (R&D Systems). Description: SPR; kd1.
Molecule B1 yielded a koff of 0.168 s⁻¹.

The molecule B2 displayed a koff of 0.168 s⁻¹.

For B3, the koff stood at 0.2 s⁻¹.

Another experiment deals with T2, mouse EphA4-Fc (R&D Systems). The experiment in a line: SPR; kd1.
As to B1, the koff was determined as 0.345 s⁻¹.

B3 yielded a koff of 0.151 s⁻¹.

Another experiment concerns the target T3, EphA4 ligand-binding domain (human, …). The experiment in a line: SPR; kd1.
In the case of B4, the koff came out at 0.108 s⁻¹.

B5 had a koff of 0.257 s⁻¹.

B6: the koff is 0.115 s⁻¹.

For B7, the koff was found to be 0.0143 s⁻¹.

For the molecule B8, the koff turned out to be 0.0607 s⁻¹.

Molecule B2 showed an off-rate (koff) of 0.192 s⁻¹.

B9 yielded a dissociation rate constant (koff) of 0.0594 s⁻¹.

For B3, the koff stood at 0.155 s⁻¹.
